In test [1] the target is GPR3-BRIL fusion protein (UniProt P46089). Description: cryo-EM structure.
For test [2] the target is unchanged. Nature of the test: cryo-EM structure. This is another data set of the same source.

Read-outs that look alike come from different tables or passages of the source.

Consider “GPR3-BRIL fusion protein (from UniProt P46089 1-222; P46089 240-330) (receptor)”, for which the stoichiometry N in the test with GPR3-BRIL fusion protein [1] and with GPR3-BRIL fusion protein [2] was 2 throughout.

The values above are taken from paper doi:10.1101/2025.04.19.649678.
